Experimental data published in PMC8559791.
Where a chain is given by its changes, count along the chain named. Numbers in names are those of the source.

B1: GsPutA (Geobacter sulfurreducens PCA) (protein)
chain: MLNSELNTKIVNRGKEFFGSISGEKPSLFNKGAWMGKAMDWSMQNEQFKIQMFRFVDVFPSLTTSKLLTEHIREYFGNEQDMPAFMSTGAKVAGMLGSFGGAVLNKVLTSNIEEMARQFIVGETTKEAVKNLEKLRKDGFAAVVDVLGEATLSEEEAEVYTNTYLELLEALKKEQGSWKGLPGKGGDPGLDWGHAPKVNIAVKPTALFCLANPQDFEGSVVAILDRMRRIFKKVMELNGFLCIDMESYRHKEIILEVFRRLKLEYRDYPHLGIVLQAYLKDNDKDLDDLLAWAKEHKVQISVRLVKGAYWDYETVKAKQNDWEVPVWTIKAESDAAYERQARKILENHQICHFACASHNIRTISAVMEMARELNVPEDRYEFQVLYGMAEPVRKGILKVAGRIRLYAPYGNMVPGMGYLVRRLLENTANESFLRQSFAEDAQIERLLEDPAVTVERERAARAAKPKKERKGLGGLPPFNNEAMVDFTRADHRAAFPKHIAQVRTQLGKTYPLFINGKEVRTNDLIPTVNPNKPSEVLGQICQAGTTEVGDAIAAAKAAFPAWRDTDPRTRAEYLLKAAQAARKRLFELSAWQVLEIGKQWDQAYADVTEAIDFLEYYAREMIRLGQPQRVGHAPGELNHYFYEPKGVAAVIAPWNFPLAISMGMASAAIVTGNCVVFKPSGITSIIGWHLVELFREAGLPEGVFNFTPGRGSVMGDYLVDHPDISLIAFTGSMETGLRIIERAAKVHPGQANVKKIISEMGGKNAIIIDDDADLDEAVPHVLYSAFGFQGQKCSACSRVIVLDAVYDKFIERLVSMAKATKVGPSEDPANYMGAVADDKAMKSIKEYAEIGKREGHVLYESPVPAGEGYFVPMTIIGGIKPEHRIAQEEIFGPVLAVMRAKDFDQAIEWANSTQFALTGGIFSRSPEHLAKARREFRVGNLYINRNNTGALVERQPFGGARMSGVGTKAGGPDYLLHFMDPRVVTENTMRRGFAPIEEDDDWVD
B2: GsPutA (Geobacter sulfurreducens PCA; A206W) (protein)
chain: B1 chain with A206W

Substrate: O=C(O)[C@@H]1CCC=N1
Experiment: purified protein
Type: biochemical, Geobacter sulfurreducens
Conditions: GSALDH site; NAD+ fixed at saturating concentration; L-P5C 0-3.5 mM

Protein | Km | kcat
B1 | 30.0 ± 13.0 µM | 4.7 ± 0.2 s⁻¹
B2 | 65.0 ± 18.3 µM | 6.0 ± 0.2 s⁻¹
